3 molecules from publication PMC4743056 can be followed below.

Experiment in all cases: fluorescence polarization
Background: Fluorescence polarisation rises when a labelled molecule tumbles more slowly, as on binding a larger partner.

The target of one data set is hPRDM9A ZnF8-11 (Homo sapiens, allele A, UniProt Q9NQV7 717-830).
A further data set has as its target hPRDM9A ZnF8-13 (Homo sapiens, allele A, UniProt Q9NQV7 717-894).
The target in data set [1] is hPRDM9 ZnF8-12 N789H (allele L20) (Homo sapiens, allele L20, UniProt Q9NQV7 717-858, N790H).
Data set [2] has as its target hPRDM9A ZnF8-12 (allele A) (Homo sapiens, allele A, UniProt Q9NQV7 717-858).

Sequence of hPRDM9 ZnF8-12 N789H (allele L20) (Q9NQV7 717-858 N790H): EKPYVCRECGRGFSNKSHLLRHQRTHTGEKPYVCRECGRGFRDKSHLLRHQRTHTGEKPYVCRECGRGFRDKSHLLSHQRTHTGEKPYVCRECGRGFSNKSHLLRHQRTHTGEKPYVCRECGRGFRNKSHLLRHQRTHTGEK
Sequence of hPRDM9A ZnF8-12 (allele A) (Q9NQV7 717-858): as the sequence (Q9NQV7 717-858 N790H) above, with H74N counted along it
Sequence of hPRDM9A ZnF8-11 (Q9NQV7 717-830): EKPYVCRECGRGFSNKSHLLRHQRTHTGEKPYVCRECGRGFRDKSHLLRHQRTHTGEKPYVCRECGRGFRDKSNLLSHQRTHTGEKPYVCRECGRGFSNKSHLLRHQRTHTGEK
Sequence of hPRDM9A ZnF8-13 (Q9NQV7 717-894): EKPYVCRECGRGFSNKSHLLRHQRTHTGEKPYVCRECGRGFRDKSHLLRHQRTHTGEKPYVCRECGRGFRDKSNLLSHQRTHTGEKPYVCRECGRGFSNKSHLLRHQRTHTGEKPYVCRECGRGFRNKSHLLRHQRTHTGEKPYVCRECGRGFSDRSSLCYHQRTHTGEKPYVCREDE

B1: THE1B 24-bp (dsDNA)
DNA 1: GAGGCCTCCCTAGCCACGTGGAAC
DNA 2: GTTCCACGTGGCTAGGGAGGCCTC
As for B1, the binding signal in the data set with hPRDM9A ZnF8-11 was ~12 fold lower affinity than ZnF8-12; with hPRDM9A ZnF8-13 it was ~1 fold (similar to ZnF8-12).

B2: THE1B T:A to C:G (dsDNA)
DNA 1: GAGGCCTCCCCAGCCACGTGGAAC
DNA 2: GTTCCACGTGGCTGGGGAGGCCTC
As for B2, the binding result in data set [1] is recorded as “binds”.

B3: THE1B with 5mC at position 17 bottom strand (dsDNA)
DNA 1: GAGGCCTCCCTAGCCACGTGGAAC
DNA 2: GTTCCACGTGGCTAGGGAGGCCTC
modifications: 5-methylcytosine at bottom strand base 7 (C of G:C bp 17)
For the molecule B3, in data set [2], the binding signal is ~1 fold (same as unmethylated).
